The target in experiment [1] is T1, Human OX40 (human, UniProt P43489 29-277).
T1 sequence: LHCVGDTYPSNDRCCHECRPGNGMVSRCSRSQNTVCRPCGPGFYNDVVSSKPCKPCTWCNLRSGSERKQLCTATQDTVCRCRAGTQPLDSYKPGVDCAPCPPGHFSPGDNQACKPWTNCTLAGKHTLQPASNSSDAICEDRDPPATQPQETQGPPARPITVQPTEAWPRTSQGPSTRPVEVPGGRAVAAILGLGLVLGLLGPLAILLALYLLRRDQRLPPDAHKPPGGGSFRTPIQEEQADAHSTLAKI
The experiment is described as follows: cell-based or functional assay.

For experiment [2], the target named is T1, Human OX40. Kind of experiment: cell-based or functional assay. The source holds these as a separate data set.
For experiment [3], the target named is T1, Human OX40. The experiment is described as follows: cell-based or functional assay. The source holds these as a separate data set.
In experiment [4] the target is T2, KO_L116+A126 (human OX40 aa Leu116 and Ala126 replaced with the mouse counterparts) (human, UniProt P43489 29-277).
T2 construct: Variant with a transmembrane domain, transient on 293F cells
T2 chain: T1 sequence with L88Q, A98V
Kind of experiment: flow cytometry, transfected 293F cells, column KO_L116A126 [FIGURE 32B con't]. How it is done:
Forty-eight hours after transfection, HEK293F cells were incubated with 1 μg/mL of OX40mAb24 for 1 hour on ice in PBS. To detect bound OX40mAb24 by flow cytometry, the cells were washed 3-times with cold PBS, incubated with 1 μg/mL of Alexa480-conjugated anti-human IgG antibody for 1 hr on ice, and then analyzed using the LSRII flow cytometer.
The expression levels of all chimeric OX40 variants were also monitored by flow cytometry; the cells were incubated with a mixture of sheep anti-human OX40 and goat anti-mouse OX40 polyclonal antibodies at 1 μg/mL in PBS for 1 hour on ice. Cells were washed 3-times with cold PBS, and then incubated with a mixture of Alexa480-conjugated anti-goat and anti-sheep IgG polyclonal antibodies. After washing 3 times with cold PBS, cells were analyzed with the LSRII flow cytometer.
On the technique in general: In flow cytometry, cells or beads pass a laser one at a time.

Experiment [5] deals with T1, Human OX40. Kind of experiment: flow cytometry on activated primary human CD4+ T cells; 50% receptor occupancy calculated from Kd. The procedure: (§1) OX40mAb24 (10 μg/mL) or 9B12 (10 μg/mL) was diluted over a 17 point 2-fold dilution series. OX40mAb24 was added to 100,000 cells (activated primary CD4⁺ T cells or human OX40-overexpressing Jurkat NFkB-luciferase clone 64 cells) per well and incubated for one hour at 4° C. For background binding subtraction, cells were incubated in the presence of secondary antibody alone. […] Following secondary antibody incubation, cells were washed and suspended in 100 μL FACS buffer for flow cytometry analysis on a BD LSRII flow cytometer as described below.

Experiment [6] concerns the target T1, Human OX40. The experiment is described as follows: flow cytometry on human OX40-overexpressing Jurkat clone 64 cells; 50% receptor occupancy calculated from Kd. How it is done:
(§2) Human OX40-overexpressing Jurkat NFκB-luciferase clone 64 cells were cultured in complete RPMI+10% FBS prior to binding experiments, without the need for activation.
as §1

Experiment [7] has as its target T3, Cynomolgus monkey OX40 (cynomolgus monkey).
T3 construct: also called cyno OX40
Kind of experiment: flow cytometry, equilibrium binding to activated primary cynomolgus CD4+ T cells; mean of 2 experiments (StdErr). How it is done: Cyno CD4⁺ T cell isolation was performed with a Miltenyi non-human primate kit according to manufacturer's instructions, then CD4⁺ T cells counted on a ViCell counter and suspended at 1×10⁶ per mL in complete medium as described above.
Cyno CD4⁺ T cells (1×10⁶ per mL in complete medium) were incubated for 48 hours in a T75 cell culture flask with 2 μg/mL PHA-L and 20 IU/mL IL-2, to activate T cells and induce OX40 expression. Activated CD4⁺ T cells were removed from the flask and 100,000 cells were transferred to each well of a non-tissue culture treated 96-well round-bottom plate for binding assays and washed with 200 μL FACS buffer. Binding was performed with 10 μg/mL OX40mAb24 or 9B12 serially diluted 4-fold in FACS buffer for an 11-point data curve, or both R347 human IgG1 or mouse IgG1 clone MOPC-21 (negative controls) serially diluted 6-fold for a 3 point data curve. OX40mAb24, 9B12 or control protein was added to CD4⁺ T cells and incubated. […] Following secondary antibody incubation, cells were processed for flow cytometry as described in Section 2.3.

Experiment [8] addresses T1, Human OX40. Kind of experiment: flow cytometry, equilibrium binding to activated primary human CD4+ T cells; apparent Kd, mean of 6 donors (StdErr). How it is done:
as §1

The target of experiment [9] is T1, Human OX40. Kind of experiment: flow cytometry on activated primary human CD4+ T cells, AlexaFluor 488 anti-mouse IgG secondary [FIGURE 2A-D, con't.), panel C]. How it is done:
as §1

Experiment [10] addresses T1, Human OX40. Kind of experiment: flow cytometry, equilibrium binding to human OX40-overexpressing Jurkat NFkB-luciferase clone 64 cells; mean of 3 experiments (StdErr). The procedure: as §2, §1

Data on one molecule can be found in patent US20160137740A1 (AstraZeneca / MedImmune, published 2016).

Residue numbers refer to the chain shown, from its start. “And” between values parts separate entries of the source, which are not always exact repeats. Equal entries are not always repeated.

B1: 9B12 (antibody, mouse IgG1, V domains shown)
VH: EVQLQESGPSLVKPSQTLSLTCSVTGDSFTSGYWNWIRKFPGNRLEYMGYISYNGITYHNPSLKSRISITRDTSKNHYYLQLNSVTTEDTATYFCARYRYDYDGGHAMDYWGQGTLVTVSS
VL: DIQMTQTTSSLSASLGDRVTISCRASQDISNYLNWYQQKPDGTVKLLIYYTSKLHSGVPSRFSGSGSRTDYSLTITDLDQEDIATYFCQQGSALPWTFGQGTKVEIKR
notes: mouse IgG1 kappa; also called murine mAb 9B12; mouse anti-human OX40 IgG1κ monoclonal antibody
As for B1, in experiment [1], the “EC50, IFNγ release, donor 645” value was determined as 2.38 nM and the “EC50, IFNγ release, donor 651” value turned out to be 0.758 nM. For the same molecule, in experiment [2], the “EC50, TNFα release, donor 645” value is 0.67 nM and the “EC50, TNFα release, donor 651” value came to 0.764 nM. Moreover, in experiment [3], the “EC50, IL10 release, donor 367” value stood at 0.198 nM; the “EC50, IL10 release, donor 645” value is 1.22 nM; the “EC50, IL10 release, donor 651” value stood at 0.796 nM. In addition, the binding result in [4] is listed as “no binding”. Also, the EC50 in [5] was 0.669 nM. In addition, the EC50 in [6] was 0.726 nM. The same molecule had a Kd in experiment [7] of 1.09 nM. In addition, the Kd in [8] is 0.669 nM. Besides, in experiment [9], the “EC50 (read off the curve)” value is ~1 nM and ~0.5 nM. In experiment [10], this molecule showed a Kd of 0.726 nM.

Broadly, the EC50 is the concentration needed to bring the measured effect to its halfway point. For orientation: EC50 (read off the curve) means the concentration that produces a half-maximal response.
